Each block holds one binder with its values, some of them ahead of it. Positions of bridges follow the written chain, without caps; N, C: chain ends. Non-standard residues stand in square brackets, D forms with d. No end group written: not given here. AEEA = NCCOCCOCC(=O)O
Key:
[1] = molecular target: binding target for TKPPR on HAEC (human aortic endothelial cells); assay: competition of 1% D47 bubble binding to HAEC; TKPR 5 µM
[2] = molecular target: binding target for TKPPR on HAEC (human aortic endothelial cells); assay: competition of 1% D47 bubble binding to HAEC; TKPR 10 µM
[3] = molecular target: binding target for TKPPR on HAEC (human aortic endothelial cells); assay: competition of 1% D47 bubble binding to HAEC; TKPR 25 µM
[4] = molecular target: binding target for TKPPR on HAEC (human aortic endothelial cells); assay: competition of 1% D47 bubble binding to HAEC; TKPR 50 µM
[5] = molecular target: binding target for TKPPR on HAEC (human aortic endothelial cells); assay: competition of 1% D47 bubble binding to HAEC; TKPR 100 µM
VEGF receptors on HUVECs = assay: competition with 125I-VEGF for binding to HUVECs
[6] = molecular target: binding target for TKPPR on HAEC (human aortic endothelial cells); assay: competition of 2% D47 bubble binding to HAEC; D54 50 µM
[7] = molecular target: binding target for TKPPR on HAEC (human aortic endothelial cells); assay: competition of 2% D47 bubble binding to HAEC; D54 100 µM
[8] = molecular target: binding target for TKPPR on HAEC (human aortic endothelial cells); assay: competition of 2% D47 bubble binding to HAEC; D54 200 µM
[9] = molecular target: binding target for TKPPR on HAEC (human aortic endothelial cells); assay: fluorescent beads on confluent HAEC, static 30 min, image analysis
[10] = molecular target: binding target for TKPPR on HAEC (human aortic endothelial cells); assay: competition of 2% D47 bubble binding to HAEC; D55 50 µM
[11] = molecular target: binding target for TKPPR on HAEC (human aortic endothelial cells); assay: competition of 2% D47 bubble binding to HAEC; D55 100 µM
[12] = molecular target: binding target for TKPPR on HAEC (human aortic endothelial cells); assay: competition of 2% D47 bubble binding to HAEC; D55 200 µM
[13] = molecular target: binding target for TKPPR on HAEC (human aortic endothelial cells); assay: competition of 1% composition bubble binding to HAEC
[14] = molecular target: binding target for TKPPR on HAEC (human aortic endothelial cells); assay: competition of 5% composition bubble binding to HAEC
[15] = molecular target: binding target for TKPPR on HAEC (human aortic endothelial cells); assay: competition of 1% D47 bubble binding to HAEC; TKPPR 5 µM
[16] = molecular target: binding target for TKPPR on HAEC (human aortic endothelial cells); assay: competition of 2% D47 bubble binding to HAEC; TKPPR 25 µM
[17] = molecular target: binding target for TKPPR on HAEC (human aortic endothelial cells); assay: competition of 1% D47 bubble binding to HAEC; TKPPR 10 µM
[18] = molecular target: binding target for TKPPR on HAEC (human aortic endothelial cells); assay: competition of 1% D47 bubble binding to HAEC; TKPPR 25 µM
[19] = molecular target: binding target for TKPPR on HAEC (human aortic endothelial cells); assay: competition of 1% D47 bubble binding to HAEC; TKPPR 50 µM
[20] = molecular target: binding target for TKPPR on HAEC (human aortic endothelial cells); assay: competition of 1% D56 bubble binding to HAEC; TKPPR 10 µM
[21] = molecular target: binding target for TKPPR on HAEC (human aortic endothelial cells); assay: competition of 1% D56 bubble binding to HAEC; TKPPR 25 µM
[22] = molecular target: binding target for TKPPR on HAEC (human aortic endothelial cells); assay: competition of 1% D56 bubble binding to HAEC; TKPPR 50 µM
[23] = molecular target: binding target for TKPPR on HAEC (human aortic endothelial cells); assay: competition of 1% D47 bubble binding to HAEC; TKPPR 100 µM
[24] = molecular target: binding target for TKPPR on HAEC (human aortic endothelial cells); assay: competition of 1% D47 bubble binding to HAEC; TKPPR 2.5 µM
[25] = molecular target: binding target for TKPPR on HAEC (human aortic endothelial cells); assay: competition of 1% D56 bubble binding to HAEC; TKPPR 2.5 µM
[26] = molecular target: binding target for TKPPR on HAEC (human aortic endothelial cells); assay: competition of TKPPR-bead binding to HAEC; free TKPPR 10 µM
[27] = molecular target: binding target for TKPPR on HAEC (human aortic endothelial cells); assay: competition of TKPPR-bead binding to HAEC; free TKPPR 25 µM
[28] = molecular target: binding target for TKPPR on HAEC (human aortic endothelial cells); assay: competition of TKPPR-bead binding to HAEC; free TKPPR 50 µM
[29] = molecular target: binding target for TKPPR on HAEC (human aortic endothelial cells); assay: competition of TKPPR-bead binding to HAEC; free TKPPR 100 µM
[30] = molecular target: binding target for TKPPR on HAEC (human aortic endothelial cells); assay: competition of TKPPR-bead binding to HAEC; free TKPPR 200 µM
[31] = molecular target: binding target for TKPPR on HAEC (human aortic endothelial cells); assay: competition of TKPPR-bead binding to HAEC; free TKPPR 500 µM
[32] = molecular target: binding target for TKPPR on HAEC (human aortic endothelial cells); assay: competition of 1% D47 bubble binding to HAEC; free TKPPR 10 µM
[33] = molecular target: binding target for TKPPR on HAEC (human aortic endothelial cells); assay: competition of 1% D47 bubble binding to HAEC; free TKPPR 50 µM
[34] = molecular target: binding target for TKPPR on HAEC (human aortic endothelial cells); assay: competition of 5% D47 bubble binding to HAEC; free TKPPR 10 µM
[35] = molecular target: binding target for TKPPR on HAEC (human aortic endothelial cells); assay: competition of 5% D47 bubble binding to HAEC; free TKPPR 50 µM
[36] = molecular target: binding target for TKPPR on HAEC (human aortic endothelial cells); assay: competition of 1% D47 bubble binding to HAEC; free TKPPR 100 µM
[37] = molecular target: binding target for TKPPR on HAEC (human aortic endothelial cells); assay: competition of 1% D47 bubble binding to HAEC; free TKPPR 200 µM
[38] = molecular target: binding target for TKPPR on HAEC (human aortic endothelial cells); assay: competition of 10% D47 bubble binding to HAEC; free TKPPR 10 µM
[39] = molecular target: binding target for TKPPR on HAEC (human aortic endothelial cells); assay: competition of 10% D47 bubble binding to HAEC; free TKPPR 50 µM
[40] = molecular target: binding target for TKPPR on HAEC (human aortic endothelial cells); assay: competition of 5% D47 bubble binding to HAEC; free TKPPR 100 µM
[41] = molecular target: binding target for TKPPR on HAEC (human aortic endothelial cells); assay: competition of 5% D47 bubble binding to HAEC; free TKPPR 200 µM
[42] = molecular target: binding target for TKPPR on HAEC (human aortic endothelial cells); assay: competition of 10% D47 bubble binding to HAEC; free TKPPR 100 µM
[43] = molecular target: binding target for TKPPR on HAEC (human aortic endothelial cells); assay: competition of 10% D47 bubble binding to HAEC; free TKPPR 200 µM
[44] = molecular target: binding target for TKPPR on HAEC (human aortic endothelial cells); assay: competition of 1% composition bubble binding to HAEC; free TKPPR 5 µM
[45] = molecular target: binding target for TKPPR on HAEC (human aortic endothelial cells); assay: competition of 1% composition bubble binding to HAEC; free TKPPR 10 µM
[46] = molecular target: binding target for TKPPR on HAEC (human aortic endothelial cells); assay: competition of 1% composition bubble binding to HAEC; free TKPPR 25 µM
[47] = molecular target: binding target for TKPPR on HAEC (human aortic endothelial cells); assay: competition of 1% composition bubble binding to HAEC; free TKPPR 50 µM
[48] = molecular target: binding target for TKPPR on HAEC (human aortic endothelial cells); assay: competition of 1% composition bubble binding to HAEC; free TKPPR 100 µM
[49] = molecular target: binding target for TKPPR on HAEC (human aortic endothelial cells); assay: competition of 5% composition bubble binding to HAEC; free TKPPR 100 µM
[50] = molecular target: binding target for TKPPR on RAEC (rabbit aortic endothelial cells); assay: competition of 5% composition bubble binding to RAEC; free TKPPR 100 µM
[51] = molecular target: binding target for TKPPR on HAEC (human aortic endothelial cells); assay: beads perfused over HAEC in a parallel plate flow cell, 37 C

- Bubbles Bound in presence of competitor [1]: 1150 bubbles
- Bubbles Bound in presence of competitor [2]: 976 bubbles
- Bubbles Bound in presence of competitor [3]: 1170 bubbles
- Bubbles Bound in presence of competitor [4]: 904 bubbles
- Bubbles Bound in presence of competitor [5]: 556 bubbles
B1: Tuftsin (TKPR) (peptide)
peptide: TKPR

- IC50 (VEGF receptors on HUVECs): 10 µM
B2: TKPPR tetramer D41, OG-(TKPPR)4 (peptide)
peptide: [AEEA]TKPPR
modifications: also: tetramer of four TKPPR on a branched non-peptide scaffold, one Oregon Green label on scaffold

- Bubbles Bound % in presence of competitor [6]: 97 % of control
- Bubbles Bound % in presence of competitor [7]: 78 % of control
- Bubbles Bound % in presence of competitor [8]: 88 % of control
B3: linear CTKPPRC (D54) (peptide)
peptide: CTKPPRC

- Integrated density of bound beads (arbitrary units) [9]: 28.6
B4: GRGDSP-conjugated fluorescent microspheres (peptide)
peptide: GRGDSP
modifications: also: coupled by EDAC to carboxylate-modified FluoSpheres, site not given here

- Bubbles Bound % in presence of competitor [10]: 97 % of control
- Bubbles Bound % in presence of competitor [11]: 71 % of control
- Bubbles Bound % in presence of competitor [12]: 99 % of control
B5: cyclic disulfide CTKPPRC (D55) (peptide)
peptide: CTKPPRC
modifications: disulfide 1-7 (inferred)

- IC50 (VEGF receptors on HUVECs): 250 µM
- % inhibition of bubble binding [13]: 82.7%
- % more bubbles bound with competitor [14]: 19%
- Bubbles Bound in presence of competitor [15]: 790 bubbles
- Bubbles Bound % in presence of competitor [16]: 16 % of control
- Bubbles Bound in presence of competitor [17]: 528 bubbles
- Bubbles Bound- D47 Formulation, in presence of competitor [17]: 535 bubbles
- Bubbles Bound in presence of competitor [18]: 106 bubbles
- Bubbles Bound- D47 Formulation, in presence of competitor [18]: 75 bubbles
- Bubbles Bound in presence of competitor [19]: 56 bubbles
- Bubbles Bound- D47 Formulation, in presence of competitor [19]: 9 bubbles
- Bubbles Bound- D56 Formulation, in presence of competitor [20]: 833 bubbles
- Bubbles Bound- D56 Formulation, in presence of competitor [21]: 718 bubbles
- Bubbles Bound- D56 Formulation, in presence of competitor [22]: 462 bubbles
- Bubbles Bound in presence of competitor [23]: 17 bubbles
- Bubbles Bound- D47 Formulation, in presence of competitor [24]: 1240 bubbles
- Bubbles Bound- D56 Formulation, in presence of competitor [25]: 888 bubbles
- % Inhibition (average, n = 11) [26]: 30.8%
- % Inhibition (average, n = 11) [27]: 50.7%
- % Inhibition (average, n = 11) [28]: 50.5%
- % Inhibition (average, n = 11) [29]: 62%
- % Inhibition (average, n = 11) [30]: 72.2%
- % Inhibition (average, n = 11) [31]: 70.6%
- Bubbles Bound- 1%, in presence of competitor [32]: 10 bubbles
- Bubbles Bound- 1%, in presence of competitor [33]: 5 bubbles
- Bubbles Bound- 5%, in presence of competitor [34]: 1340 bubbles
- Bubbles Bound- 5%, in presence of competitor [35]: 440 bubbles
- Bubbles Bound- 1%, in presence of competitor [36]: 4 bubbles
- Bubbles Bound- 1%, in presence of competitor [37]: 4 bubbles
- Bubbles Bound- 10%, in presence of competitor [38]: 1090 bubbles
- Bubbles Bound- 10%, in presence of competitor [39]: 857 bubbles
- Bubbles Bound- 5%, in presence of competitor [40]: 12 bubbles
- Bubbles Bound- 5%, in presence of competitor [41]: 13 bubbles
- Bubbles Bound- 10%, in presence of competitor [42]: 399 bubbles
- Bubbles Bound- 10%, in presence of competitor [43]: 66 bubbles
- Average % Inhibition [44]: 45.7%
- Average % Inhibition [45]: 79.6%
- Average % Inhibition [46]: 82%
- Average % Inhibition [47]: 92.7%
- Average % Inhibition [48]: 93.7%
- HAEC bubbles bound in presence of competitor [49]: 58 bubbles
- RAEC bubbles bound in presence of competitor [50]: 21 bubbles
B6: TKPPR (L-threonyl-L-lysyl-L-prolyl-L-prolyl-L-arginine) (peptide)
peptide: TKPPR

- Bound at 1.53 dynes/cm^2 [51]: 86 beads
- Integrated density of bound beads (arbitrary units) [9]: 230
B7: TKPPR-conjugated red fluorescent microspheres (peptide)
peptide: TKPPR
modifications: also: amino group coupled by EDAC to carboxylate-modified FluoSpheres, which amino group not given here

Reference: patent publication US20060153775A1
